This assay has as its target recombinant C-terminal fragment (residues 284-707) of nucleolin (nucleolin-C) (UniProt P19338). Description: SPR; Biacore 3000; nucleolin-C amine-coupled on CM4 chip (~540 RU); FGF1 or FGF2 10-320 nM in PBS with 0.1 mg/ml BSA, 0.005% P20, pH 7.3, 25 C, 30 ul/min; no fit to 1:1 Langmuir, constants by Interaction Map (two parallel processes); apparent/approximate. In general terms: SPR reads the build-up and loss of mass on a sensor chip optically.
UniProt P19338, sequence (P19338 284-707): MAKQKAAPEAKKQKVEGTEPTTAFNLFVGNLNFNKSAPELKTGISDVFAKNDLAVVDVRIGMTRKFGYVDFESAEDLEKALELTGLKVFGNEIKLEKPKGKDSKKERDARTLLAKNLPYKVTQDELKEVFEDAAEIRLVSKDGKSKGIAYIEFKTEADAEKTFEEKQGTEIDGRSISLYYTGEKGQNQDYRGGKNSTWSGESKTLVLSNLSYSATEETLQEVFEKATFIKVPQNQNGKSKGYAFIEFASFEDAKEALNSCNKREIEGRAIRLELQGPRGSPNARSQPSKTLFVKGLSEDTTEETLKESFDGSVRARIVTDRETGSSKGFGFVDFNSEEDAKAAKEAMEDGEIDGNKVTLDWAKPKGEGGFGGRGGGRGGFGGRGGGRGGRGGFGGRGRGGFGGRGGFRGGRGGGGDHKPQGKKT

Take “recombinant FGF1, truncated form (Ala-FGF1 21-154), wild type (ligand)”: the KD, stronger of two parallel binding processes (apparent) was determined as 40 nM; the KD, weaker of two parallel binding processes (approximate) was 480 nM; the ka, stronger of two parallel binding processes came out at 18000 M⁻¹ s⁻¹; the ka, weaker of two parallel binding processes amounted to 1.7e+06 M⁻¹ s⁻¹. In addition, the kd, stronger of two parallel binding processes is 0.0007 s⁻¹ and the kd, weaker of two parallel binding processes was 0.83 s⁻¹.

The values are drawn from paper PMC3942467.
